In patent publication US20180094045A1 (ASCLEPIUS SUZHOU TECHNOLOGY COMPANY GROUP, published 2018):

Experiments:
[1] = target: T1, Robo1 (ORIGEN Company, number: TP327713) (UniProt Q9Y6N7 26-1651, limits assumed); assay: SPR (BIAcore), Robo1 bound on CM5 chip
T1 construct: also called receptor Robo1; target protein Robo1
Experimental: (§1) The affinity constant between the prepared protein and Robo1 was determined by SPR (Surface Plasmon resonance BIAcore200). The Robo1 (ORIGEN Company, number: TP327713) was bound on CM5 chip and used to analysis the interaction between fusion protein Slit2D2-HSA and receptor Robo1. Kinetic measurements were carried out according to the method referred by Canziani et al. (2004, Anal. Biochem. 325:301-307), simultaneously, the same method was applied to measure the affinity between Slit2N protein (Slit2N is a protein at N-terminal of slit2 with a molecular weight of about 120 KDa) and Robo1.

[2] = target: T1, Robo1 (ORIGEN Company, number: TP327713); assay: SPR (BIAcore), Robo1 bound on CM5 chip; column head 'Kd (nM)'
Experimental: as §1

T1 sequence (Q9Y6N7 26-1651 limits assumed): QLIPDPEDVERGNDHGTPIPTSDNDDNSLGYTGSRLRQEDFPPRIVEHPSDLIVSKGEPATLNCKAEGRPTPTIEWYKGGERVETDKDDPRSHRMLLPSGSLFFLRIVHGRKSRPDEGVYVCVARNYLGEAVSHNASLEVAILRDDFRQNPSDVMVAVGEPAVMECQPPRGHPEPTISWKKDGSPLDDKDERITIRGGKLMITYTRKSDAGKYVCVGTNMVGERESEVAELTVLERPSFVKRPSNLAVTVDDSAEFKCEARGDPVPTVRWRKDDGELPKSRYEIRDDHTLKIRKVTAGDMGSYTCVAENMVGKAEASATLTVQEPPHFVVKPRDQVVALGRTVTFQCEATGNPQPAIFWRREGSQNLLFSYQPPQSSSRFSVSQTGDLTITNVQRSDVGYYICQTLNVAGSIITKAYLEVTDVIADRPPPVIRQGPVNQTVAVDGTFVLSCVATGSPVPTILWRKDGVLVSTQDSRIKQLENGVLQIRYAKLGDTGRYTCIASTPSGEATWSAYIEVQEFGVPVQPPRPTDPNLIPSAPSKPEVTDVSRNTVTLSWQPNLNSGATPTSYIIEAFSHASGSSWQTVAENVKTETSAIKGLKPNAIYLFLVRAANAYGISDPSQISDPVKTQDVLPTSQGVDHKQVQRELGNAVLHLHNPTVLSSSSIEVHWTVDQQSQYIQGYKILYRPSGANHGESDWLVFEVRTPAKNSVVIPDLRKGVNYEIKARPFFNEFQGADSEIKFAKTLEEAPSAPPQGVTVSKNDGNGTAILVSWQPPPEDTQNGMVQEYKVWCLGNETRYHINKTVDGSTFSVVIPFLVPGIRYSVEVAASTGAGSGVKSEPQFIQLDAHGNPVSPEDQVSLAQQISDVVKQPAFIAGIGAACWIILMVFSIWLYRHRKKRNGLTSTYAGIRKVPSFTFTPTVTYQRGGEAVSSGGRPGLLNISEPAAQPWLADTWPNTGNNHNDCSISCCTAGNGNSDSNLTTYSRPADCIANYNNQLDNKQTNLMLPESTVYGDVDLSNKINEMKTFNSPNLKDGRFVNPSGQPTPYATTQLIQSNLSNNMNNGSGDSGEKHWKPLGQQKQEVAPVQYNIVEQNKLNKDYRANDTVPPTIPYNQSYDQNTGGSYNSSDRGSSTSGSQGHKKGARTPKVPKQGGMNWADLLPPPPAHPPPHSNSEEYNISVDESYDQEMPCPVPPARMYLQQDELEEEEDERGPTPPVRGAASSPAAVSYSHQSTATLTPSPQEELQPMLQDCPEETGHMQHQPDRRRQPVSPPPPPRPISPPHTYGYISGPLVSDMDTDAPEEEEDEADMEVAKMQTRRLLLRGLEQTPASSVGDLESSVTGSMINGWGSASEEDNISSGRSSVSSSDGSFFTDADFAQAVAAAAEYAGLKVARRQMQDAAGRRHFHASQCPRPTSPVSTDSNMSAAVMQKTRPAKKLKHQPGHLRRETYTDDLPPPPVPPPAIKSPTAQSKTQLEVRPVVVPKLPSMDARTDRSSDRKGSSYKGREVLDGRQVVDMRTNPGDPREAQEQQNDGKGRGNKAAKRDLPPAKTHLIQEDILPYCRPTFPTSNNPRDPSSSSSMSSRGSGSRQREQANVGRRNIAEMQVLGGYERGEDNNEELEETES

B1: Slit2N protein (ligand, UniProt O94813 31-1121, looked up)
chain: QCSCSGSTVDCHGLALRSVPRNIPRNTERLDLNGNNITRITKTDFAGLRHLRVLQLMENKISTIERGAFQDLKELERLRLNRNHLQLFPELLFLGTAKLYRLDLSENQIQAIPRKAFRGAVDIKNLQLDYNQISCIEDGAFRALRDLEVLTLNNNNITRLSVASFNHMPKLRTFRLHSNNLYCDCHLAWLSDWLRQRPRVGLYTQCMGPSHLRGHNVAEVQKREFVCSGHQSFMAPSCSVLHCPAACTCSNNIVDCRGKGLTEIPTNLPETITEIRLEQNTIKVIPPGAFSPYKKLRRIDLSNNQISELAPDAFQGLRSLNSLVLYGNKITELPKSLFEGLFSLQLLLLNANKINCLRVDAFQDLHNLNLLSLYDNKLQTIAKGTFSPLRAIQTMHLAQNPFICDCHLKWLADYLHTNPIETSGARCTSPRRLANKRIGQIKSKKFRCSAKEQYFIPGTEDYRSKLSGDCFADLACPEKCRCEGTTVDCSNQKLNKIPEHIPQYTAELRLNNNEFTVLEATGIFKKLPQLRKINFSNNKITDIEEGAFEGASGVNEILLTSNRLENVQHKMFKGLESLKTLMLRSNRITCVGNDSFIGLSSVRLLSLYDNQITTVAPGAFDTLHSLSTLNLLANPFNCNCYLAWLGEWLRKKRIVTGNPRCQKPYFLKEIPIQDVAIQDFTCDDGNDDNSCSPLSRCPTECTCLDTVVRCSNKGLKVLPKGIPRDVTELYLDGNQFTLVPKELSNYKHLTLIDLSNNRISTLSNQSFSNMTQLLTLILSYNRLRCIPPRTFDGLKSLRLLSLHGNDISVVPEGAFNDLSALSHLAIGANPLYCDCNMQWLSDWVKSEYKEPGIARCAGPGEMADKLLLTTPSKKFTCQGPVDVNILAKCNPCLSNPCKNDGTCNSDPVDFYRCTCPYGFKGQDCDVPIHACISNPCKHGGTCHLKEGEEDGFWCICADGFEGENCEVNVDDCEDNDCENNSTCVDGINNYTCLCPPEYTGELCEEKLDFCAQDLNPCQHDSKCILTPKGFKCDCTPGYVGEHCDIDFDDCQDNKCKNGAHCTDAVNGYTCICPEGYSGLFCEFSPPMVLPR
notes: domain: protein at N-terminal of slit2 with a molecular weight of about 120 KDa; Comparator in the SPR experiment
- kon [1]: 744000 M⁻¹ s⁻¹
- Kd [2]: 4.5 nM
